We go through 5 molecules from US7790682B1, “Engineered human acidic fibroblast growth factors and associated methods” (The Florida State University Research Foundation, Inc., priority 2003, dated 2010).

Series [1] is described as follows: Isothermal equilibrium denaturation in guanidine HCl monitored by CD. The settings on record: for Cm / m-value / ΔG0: GuHCl, 298K, CD signal at 227 nm; for ΔΔG: relative to WT*, negative value = more stable. The series is classed as physicochemical. As for the experimental part: Protein samples were equilibrated overnight in 20 mM N-2-(acetamido)iminodiacetic acid (ADA), 100 mM NaCl pH 6.60 at 298K in 0.1M increments of guanidine HCl (GuHCl). All samples contained a final protein concentration of 25 μM. An Aviv model 202 circular dichroism spectrometer (Proterion Corp., Piscataway, N.J.) equipped with a Peltier controlled temperature unit maintaining a constant temperature of 298K was used for all spectroscopic measurements. For each sample, triplicate scans were collected and averaged. Buffer traces were collected, averaged and subtracted from the sample traces. Data smoothing was performed prior to buffer subtraction using a 5-point Fourier transform filter. The denaturation process was monitored by observing the change in CD signal at 227 nm with increasing GuHCl, according to published references. The general purpose non-linear least squares fitting program DataFit™ (Oakdale Engineering, Oakdale Pa.) was used to fit the change in molar ellipticity at 227 nm versus GuHCl concentration to a six parameter two state model: F=(F0N+SN[D]+F0D+SD[D])e^−((ΔG0+m[D]/RT)/1+e^−((ΔG0+m[D]/RT) (1) where [D] is the denaturant concentration, F0N and F0D are the 0M denaturant molar ellipticity intercepts for the native and denatured states, respectively, and SN and SD are the slopes of the native and denatured state baselines, respectively. ΔG0 and m describe the linear function of the unfolding free energy versus denaturant concentration at 298K. The effect of a given mutation upon the stability of the protein (ΔΔG) was calculated by taking the difference between the Cm values for WT* and mutant and multiplying by the average of the m values, as described by Pace and Scholtz (Measuring the conformational stability of a protein; in Protein Structure: A Practical Approach, Creighton, T. E., ed., pp. 299-321, Oxford University Press, Oxford; 1997): ΔΔG=(CmWT*−Cm mutant)(mWT*+mmutant)/2 (2) Folding Kinetics Measurements.
Previous studies by others of the stability and folding of FGF-1 have been performed by monitoring the fluorescence signal of the single buried Trp 107 in FGF-1. This Trp in the WT* structure is somewhat unusual in that it is more highly quenched in the native state than the denatured. […] We have previously compared the fluorescence and CD spectroscopic response of FGF-1 to denaturation by GuHCl and shown essentially indistinguishable results for both his-tagged and non-his-tagged forms. A tabulation of the mutant thermodynamic data from isothermal equilibrium denaturation, monitored by CD signal, is listed in Table II. The data in this table for the SYM6 mutant are from our previously published isothermal equilibrium denaturation study monitored by fluorescence.

The nature of series [2]: Heparin Sepharose affinity chromatography / heparin-binding affinity. The text has this:
All studies herein disclosed utilized a synthetic gene for the 140 amino acid form of human FGF-1 with the addition of an amino-terminal six residue “His-tag” to facilitate purification using nickel nitrilotriacetic acid (Ni-NTA) affinity resin (QIAGEN, Valencia Calif.). The QuikChange® site-directed mutagenesis protocol (Stratagene, La Jolla Calif.) was used to introduce mutations, individually or in combination, using mutagenic oligonucleotides of 25 to 31 bases in length (Biomolecular Analysis Synthesis and Sequencing Laboratory, Florida State University). For deletions involving residues 104-106 and 120-122, mutagenic oligonucleotides were used to delete these positions as well as to simultaneously create point mutations Ala103 ? Gly and Arg119 ? Gly, respectively. […]
All mutant proteins, with the exception of the SYM6 mutant were expressed at levels similar to the WT* protein (i.e. ˜30-100 mg/L). […] Phe, and E280nm (0.1%, 1 cm)=1.31 for all deletion mutations (determined by dithionitrobenzoate titration of cysteine residues).
To quantify the reduced affinity for heparin (a polysulfonated polysaccharide) we determined the affinity for sucrose octasulfate, a structural mimic of a heparin dimer, by isothermal titration calorimetry. […]

Where “and” joins values, the source holds several entries; their conditions need not be identical. Equal values may be shown once. Entries after “also recorded” stand apart in the source; their conditions may differ.

As to “WT*: Wild type (his-tagged) 140 amino acid form of human FGF-1, SEQ ID NO: 4 [reference compound]”, in series [1], the Cm turned out to be 1.06 ± 0.01 M, the m-value is listed as 20.1 ± 0.5 kJ/mol M, the ΔG0 turned out to be 5.09 ± 0.19 kcal/mol and the ΔΔG is 0 kcal/mol.

B1: SYM5/Δ120-122: SYM5 FGF-1 mutant plus Arg119→Gly/ΔGly120/ΔPro121/ΔArg122, SEQ ID NO: 2 (protein)
chain: FNLPPGNYKKPKLLYCSNGGHFLRILPDGTVDGTRDRSDQHIQFQLSAESVGEVYIKSTETGQYLAMDTDGLVYGSQTPNEECLFLERLEENHYNTYISKKHAEKNWFLGIKKNGSVKGTHYGQKAILFLPLPVSSD
modifications: Human FGF-1 mutant SYM5D120-122
For the molecule B1, in series [1], the Cm came out at 1.00 ± 0.02 M, the m-value was 16.6 ± 0.5 kJ/mol M, the ΔG0 worked out at 3.97 ± 0.12 kcal/mol and the ΔΔG worked out at 0.263 kcal/mol.

B2: SYM5: FGF-1 core mutant Leu44→Phe/Leu73→Val/Val109→Leu/Leu111→Ile/Cys117→Val (protein, UniProt P05230 16-155, looked up, variant L44F L73V V109L L111I C117V)
Fibroblast growth factor 1: FNLPPGNYKKPKLLYCSNGGHFLRILPDGTVDGTRDRSDQHIQFQLSAESVGEVYIKSTETGQYLAMDTDGLVYGSQTPNEECLFLERLEENHYNTYISKKHAEKNWFLGIKKNGSVKRGPRTHYGQKAILFLPLPVSSD
In series [1], B2 yielded a Cm of 1.05 ± 0.01 M, a m-value of 17.5 ± 0.3 kJ/mol M, a ΔG0 of 4.4 ± 0.096 kcal/mol and a ΔΔG of 0.048 kcal/mol. Moreover, in series [1] (relative to SYM5ΔΔ), the “effect on stability of insertion of both loop regions” value is recorded as “+15.0 kJ/mol”.

B3: SYM6/ΔΔ: SYM6 FGF-1 mutant plus both Δ104-106 and Δ120-122 deletion mutations, SEQ ID NO: 1 (protein)
chain: FNLPPGNYKKPKLLYCSNGGHFLRILPDGTVDGTRDRSDQHIQFQLSAESVGEVYIKSTETGQYLAIDTDGLVYGSQTPNEECLFLERLEENHYNTYISKKHGWFLGIKKNGSVKGTHYGQKAILFLPLPVSSD
modifications: Human FGF-1 mutant SYM6DD
With B3, in series [1], the Cm was determined as 1.91 ± 0.02 M, the m-value turned out to be 17.7 ± 0.4 kJ/mol M, the ΔG0 was found to be 8.1 ± 0.14 kcal/mol and the ΔΔG was -3.85 kcal/mol. Moreover, the “increase in protein stability” value in series [1] (in comparison to WT*) is 3.85 kcal/mol and ~3.82 kcal/mol. The “heparin-binding affinity (in words)” value in series [2] is “markedly reduced; also recorded: decreased heparin binding affinity”.

B4: SYM5/Δ104-106: SYM5 FGF-1 mutant plus Ala103→Gly/ΔGlu104/ΔLys105/ΔAsn106 (protein, UniProt P05230 16-155, looked up, variant L44F L73V V109L L111I C117V A103G del104-106)
Fibroblast growth factor 1: FNLPPGNYKKPKLLYCSNGGHFLRILPDGTVDGTRDRSDQHIQFQLSAESVGEVYIKSTETGQYLAMDTDGLVYGSQTPNEECLFLERLEENHYNTYISKKHGWFLGIKKNGSVKRGPRTHYGQKAILFLPLPVSSD
In series [1], B4 displayed a Cm of 1.47 ± 0.01 M, a m-value of 17.2 ± 0.5 kJ/mol M, a ΔG0 of 6.05 ± 0.22 kcal/mol and a ΔΔG of -1.82 kcal/mol.
